# Data as given in patent publication US20260103522A1 (LONGBIO PHARMA SUZHOU, published 2026).
# Positions count from the first letter of the chain named.
# B1: Her2-specific binding protein DB871 (antibody)
# heavy: EVQLVESGGGLVQPGGSLRLSCAASGFTFTDYTMDWVRQAPGKGLEWVADVNPNSGGSIYNQRFKGRFTLSVDRSKNTLYLQMNSLRAEDTAVYYCARNLGPSFYFDYWGQGTLVTVSSASTKGPSVFPLAPSSKSTSGGTAALGCLVKDYFPEPVTVSWNSGALTSGVHTFPAVLQSSGLYSLSSVVTVPSSSLGTQTYICNVNHKPSNTKVDKKVEPKSCSRDFTPPTVKILQSSCDGGGHFPPTIQLLCLVSGYTPGTINITWLEDGQVMDVDLSTASTTQEGELASTQSELTLSQKHWLSDRTYTCQVTYQGHTFEDSTKKCADSNPRGVSVFLFPPKPKDTLMISRTPEVTCVVVDLAPSKGTVKFNWYVDGVEVHNAKTKPREKQRNGTLTVVSVLTVLHQDWLNGKEYKCKVTHPHLPRALEKTISKAKGQPREPQVYTLPPSREEMTKNQVSLTCLVKGFYPSDIAVEWESNGQPENNYKTTPPVLDSDGSFFLYSKLTVDKSRWQQGNVFSCSVMHEALHNHYTQKSLSLSPGK
# light: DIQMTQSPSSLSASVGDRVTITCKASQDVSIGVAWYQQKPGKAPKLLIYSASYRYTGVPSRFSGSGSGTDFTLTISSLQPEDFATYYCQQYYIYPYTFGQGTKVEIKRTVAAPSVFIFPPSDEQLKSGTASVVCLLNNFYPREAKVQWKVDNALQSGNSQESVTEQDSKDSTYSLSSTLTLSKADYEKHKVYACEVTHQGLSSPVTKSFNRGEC
# notes: IgG-like molecule: Pertuzumab Fab fused to the engineered Fc (on the basis of DB177); copies: 2 + 2
# B2: binding protein DB366 (designed binder)
# chain: CADSNPRGVSVFLFPPKPKDTLMISRTPEVTCVVVDLAPSKGTVKFNWYVDGVEVHNAKTKPREKQRNGTLTVVSVLTVLHQDWLNGKEYKCKVTHPHLPRALEKTISKAKGQPREPQVYTLPPSREEMTKNQVSLTCLVKGFYPSDIAVEWESNGQPENNYKTTPPVLDSDGSFFLYSKLTVDKSRWQQGNVFSCSVMHEALHNHYTQKSLSLSPGK
# notes: Engineered IgG Fc with IgE CH3 loops
# B3: binding protein DB-B63 (designed binder)
# chain: B2 chain with K45N, K93R
# notes: as for B2
# B4: binding protein DB365 (designed binder)
# chain: TKKCADSNPRGVSVFLFPPKPKDTLMISRTPEVTCVVVDLAPSKGTVKFNWYVDGVEVHNAKTKPREKQRNGTLTVVSVLTVLHQDWLNGKEYKCKVTHPHLPRALEKTISKAKGQPREPQVYTLPPSREEMTKNQVSLTCLVKGFYPSDIAVEWESNGQPENNYKTTPPVLDSDGSFFLYSKLTVDKSRWQQGNVFSCSVMHEALHNHYTQKSLSLSPGK
# notes: as for B2
# B5: binding protein DB-B64 (designed binder)
# chain: CPAPELLGGPSVFLFPPKPKDTLMISRTPEVTCVVVDLAPSKGTVKFNWYVDGVEVHNAKTKPREKQRNGTLTVVSVLTVLHQDWLNGKEYKCKVTHPHLPRALEKTISKAKGQPREPQVYTLPPSREEMTKNQVSLTCLVKGFYPSDIAVEWESNGQPENNYKTTPPVLDSDGSFFLYSKLTVDKSRWQQGNVFSCSVMHEALHNHYTQKSLSLSPGK
# notes: as for B2
# B6: GPC3-specific binding protein DB-B230 (antibody, human IgG1, kappa)
# heavy: QVQLVQSGAEVKKPGASVKVSCKASGYTFTDYEMHWVRQAPGQGLEWMGALDPKTGDTAYSQKFKGRVTLTADKSTSTAYMELSSLTSEDTAVYYCTRFYSYTYWGQGTLVTVSSASTKGPSVFPLAPSSKSTSGGTAALGCLVKDYFPEPVTVSWNSGALTSGVHTFPAVLQSSGLYSLSSVVTVPSSSLGTQTYICNVNHKPSNTKVDKKVEPKSCDKTHTCPPCPADSNPRGVSVFLFPPKPKDTLMISRTPEVTCVVVDLAPSKGTVKFNWYVDGVEVHNAKTKPREKQRNGTLTVVSVLTVLHQDWLNGKEYKCKVTHPHLPRALEKTISKAKGQPREPQVYTLPPSREEMTKNQVSLTCLVKGFYPSDIAVEWESNGQPENNYKTTPPVLDSDGSFFLYSKLTVDKSRWQQGNVFSCSVMHEALHNHYTQKSLSLSPGK
# light: DVVMTQSPLSLPVTPGEPASISCRSSQSLVHSNRNTYLHWYLQKPGQSPQLLIYKVSNRFSGVPDRFSGSGSGTDFTLKISRVEAEDVGVYYCSQNTHVPPTFGQGTKLEIKRTVAAPSVFIFPPSDEQLKSGTASVVCLLNNFYPREAKVQWKVDNALQSGNSQESVTEQDSKDSTYSLSSTLTLSKADYEKHKVYACEVTHQGLSSPVTKSFNRGEC
# notes: IgG-like molecule: Codrituzumab Fab fused to the engineered Fc; copies: 2 + 2
# B7: GPC3-specific binding protein DB-B229 (antibody)
# heavy: QVQLVQSGAEVKKPGASVKVSCKASGYTFTDYEMHWVRQAPGQGLEWMGALDPKTGDTAYSQKFKGRVTLTADKSTSTAYMELSSLTSEDTAVYYCTRFYSYTYWGQGTLVTVSSASTKGPSVFPLAPSSKSTSGGTAALGCLVKDYFPEPVTVSWNSGALTSGVHTFPAVLQSSGLYSLSSVVTVPSSSLGTQTYICNVNHKPSNTKVDKKVEPKSCSRDFTPPTVKILQSSCDGGGHFPPTIQLLCLVSGYTPGTINITWLEDGQVMDVDLSTASTTQEGELASTQSELTLSQKHWLSDRTYTCQVTYQGHTFEDSTKKCADSNPRGVSVFLFPPKPKDTLMISRTPEVTCVVVDLAPSKGTVKFNWYVDGVEVHNAKTKPREKQRNGTLTVVSVLTVLHQDWLNGKEYKCKVTHPHLPRALEKTISKAKGQPREPQVYTLPPSREEMTKNQVSLTCLVKGFYPSDIAVEWESNGQPENNYKTTPPVLDSDGSFFLYSKLTVDKSRWQQGNVFSCSVMHEALHNHYTQKSLSLSPGK
# light: B6 light
# notes: as for B6
# B8: Her2-specific binding protein DB872 (antibody, human IgG1, kappa)
# heavy: EVQLVESGGGLVQPGGSLRLSCAASGFTFTDYTMDWVRQAPGKGLEWVADVNPNSGGSIYNQRFKGRFTLSVDRSKNTLYLQMNSLRAEDTAVYYCARNLGPSFYFDYWGQGTLVTVSSASTKGPSVFPLAPSSKSTSGGTAALGCLVKDYFPEPVTVSWNSGALTSGVHTFPAVLQSSGLYSLSSVVTVPSSSLGTQTYICNVNHKPSNTKVDKKVEPKSCDKTHTCPPCPADSNPRGVSVFLFPPKPKDTLMISRTPEVTCVVVDLAPSKGTVKFNWYVDGVEVHNAKTKPREKQRNGTLTVVSVLTVLHQDWLNGKEYKCKVTHPHLPRALEKTISKAKGQPREPQVYTLPPSREEMTKNQVSLTCLVKGFYPSDIAVEWESNGQPENNYKTTPPVLDSDGSFFLYSKLTVDKSRWQQGNVFSCSVMHEALHNHYTQKSLSLSPGK
# light: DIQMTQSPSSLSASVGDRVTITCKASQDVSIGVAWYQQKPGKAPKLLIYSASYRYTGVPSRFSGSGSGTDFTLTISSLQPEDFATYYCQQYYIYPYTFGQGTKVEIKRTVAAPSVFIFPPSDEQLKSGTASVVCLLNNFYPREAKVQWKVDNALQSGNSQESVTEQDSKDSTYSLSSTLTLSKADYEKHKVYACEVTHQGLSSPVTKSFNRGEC
# notes: IgG-like molecule: Pertuzumab Fab fused to the engineered Fc (on the basis of DB366); copies: 2 + 2
# B9: binding protein DB364 (designed binder)
# chain: DFTPPTVKILQSSCDGGGHFPPTIQLLCLVSGYTPGTINITWLEDGQVMDVDLSTASTTQEGELASTQSELTLSQKHWLSDRTYTCQVTYQGHTFEDSTKKCADSNPRGVSVFLFPPKPKDTLMISRTPEVTCVVVDLAPSKGTVKFNWYVDGVEVHNAKTKPREKQRNGTLTVVSVLTVLHQDWLNGKEYKCKVTHPHLPRALEKTISKAKGQPREPQVYTLPPSREEMTKNQVSLTCLVKGFYPSDIAVEWESNGQPENNYKTTPPVLDSDGSFFLYSKLTVDKSRWQQGNVFSCSVMHEALHNHYTQKSLSLSPGK
# notes: as for B2
# B10: binding protein DB177 (designed binder)
# chain: CSRDFTPPTVKILQSSCDGGGHFPPTIQLLCLVSGYTPGTINITWLEDGQVMDVDLSTASTTQEGELASTQSELTLSQKHWLSDRTYTCQVTYQGHTFEDSTKKCADSNPRGVSVFLFPPKPKDTLMISRTPEVTCVVVDLAPSKGTVKFNWYVDGVEVHNAKTKPREKQRNGTLTVVSVLTVLHQDWLNGKEYKCKVTHPHLPRALEKTISKAKGQPREPQVYTLPPSREEMTKNQVSLTCLVKGFYPSDIAVEWESNGQPENNYKTTPPVLDSDGSFFLYSKLTVDKSRWQQGNVFSCSVMHEALHNHYTQKSLSLSPGK
# notes: Engineered human IgG Fc whose CH2 carries BC-LOOP, DE-TURN and FG-LOOP of IgE CH3
# Target: T1, recombinant human FcεRIa extracellular region-mouse IgG2a Fc-6×His fusion protein (human; mouse, UniProt P12319 26-205)
# T1 construct: extracellular domain; Self-produced; also called FcεRIa-mG2Ahis; DB3967; not shown: mouse IgG2a Fc
# T1 sequence (P12319 26-205): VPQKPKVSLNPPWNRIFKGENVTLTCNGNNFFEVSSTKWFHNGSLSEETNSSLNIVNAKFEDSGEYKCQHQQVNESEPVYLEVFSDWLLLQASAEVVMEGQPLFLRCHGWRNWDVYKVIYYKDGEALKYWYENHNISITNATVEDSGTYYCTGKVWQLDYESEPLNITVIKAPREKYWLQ
# Assay: BLI (GatorBio), FcεRIa-mG2Ahis loaded on Anti-HIS probe, binding protein at 200, 50, 12.5 nM
# Text: In order to verify the binding ability of the binding proteins to FcεRIa, the Bio-layer Interferometry (BLI, GatorBio) was used to detect the affinity of the binding proteins to FcεRIa. The detailed affinity assay method can be found in the usage or application instructions of the GatorBio instrument, which was briefly described as follows: […]
row,Binder,Kd [nM]
1,B1,~1
2,B2,~1
3,B3,~1
4,B4,~1
5,B5,~1
6,B6,~1
7,B7,~1
8,B8,~1
9,B9,~1
10,B10,~1
